For this series, the system named is L-aspartate oxidase. The series is described as follows: Activity test of L-aspartate oxidase variants (H2O2, Amplex Red, absorbance at 560 nm) with NAD added. The class given is biochemical, E. coli. The method, then:
After the recombinant vector pT7-nadB, pT7-nadB67, pT7-nadB67(V), pT7-nadB67(L), pT7-nadB67(I), or pT7-nadB67(H) was transformed into a tuner strain via CaCl2 method, the transformed strain was smeared on a LB-SP (yeast extract 10 g/L, NaCl 5 g/L, tryptone 10 g/L, and spectinomycin […]) plate medium, and cultured overnight at 37[…] to select spectinomycin-resistant colonies. One colony was selected from them and cultured in a LB-SP (yeast extract 10 g/L, NaCl 5 g/L, tryptone 10 g/L, spectinomycin […]) liquid medium, and then a isopropyl-1-thio-β-D-galactopyranoside (IPTG) derivative was added thereto when the growth optical density (OD) value reached to 0.4, and cultured at about 18[…] overnight. Cells including the overexpressed wild type L-aspartate oxidase and L-aspartate oxidase variants were recovered from the culture medium, followed by purification of the wild type L-aspartate oxidase and L-aspartate oxidase variants from the recovered cells by Ni-NTA spin kit (Quiagen, U.S.A). The recovered protein was 50% of a total protein, about 2% of the recovered protein was recovered as L-aspartate oxidase.
The L-aspartate oxidase converts aspartate as a substrate to iminoaspartate in the presence of an FAD as cofactor, and the imminoaspartate is converted b to oxaloacetate. Hydrogen peroxide (H2O2), that is generated through the above-described reaction, was used to identify the activity of the nadB. Absorbance at 560 nm of a reaction product of H2O2 with a product from the reaction was measured using an Amplex Red (Invitrogen, Korea) to determine the activity of the nadB. Here, NAD was added at different concentrations to create a condition for competitive inhibition to FAD so as to evaluate the resistance of L-aspartate oxidase against the feedback regulation by NAD.

B1: Wild type-nadB: His-tagged wild type E. coli L-aspartate oxidase (SEQ ID NO: 1) purified from pT7-nadB expression (protein)
chain: MNTLPEHSCDVLIIGSGAAGLSLALRLADQHQVIVLSKGPVTEGSTFYAQGGIAAVFDETDSIDSHVEDTLIAGAGICDRHAVEFVASNARSCVQWLIDQGVLFDTHIQPNGEESYHLTREGGHSHRRILHAADATGREVETTLVSKALNHPNIRVLERSNAVDLIVSDKIGLPGTRRVVGAWVWNRNKETVETCHAKAVVLATGGASKVYQYTTNPDISSGDGIAMAWRAGCRVANLEFNQFHPTALYHPQARNFLLTEALRGEGAYLKRPDGTRFMPDFDERGELAPRDIVARAIDHEMKRLGADCMFLDISHKPADFIRQHFPMIYEKLLGLGIDLTQEPVPIVPAAHYTCGGVMVDDHGRTDVEGLYAIGEVSYTGLHGANRMASNSLLECLVYGWSAAEDITRRMPYAHDISTLPPWDESRVENPDERVVIQHNWHELRLFMWDYVGIVRTTKRLERALRRITMLQQEIDEYYAHFRVSNNLLELRNLVQVAELIVRCAMMRKESRGLHFTLDYPELLTHSGPSILSPGNHYINR
modifications: His tag; amino acid sequence of nadB
B1: the Relative activity (NAD 0 mM) was 100%; the Relative activity (NAD 0.05 mM) is 95%; the Relative activity (NAD 0.3 mM) is on record as 82%; the Relative activity (NAD 0.5 mM) is recorded as 65%; the Relative activity (NAD 1 mM) stood at 22%; the Relative activity result (NAD 1 mM, listed as wild type L-aspartate oxidase) is “less than 50%”.

Values taken from patent US9290743B2, “L-aspartate oxidase variant and a method for producing quinolinate or nicotinic acid using the same” (CJ CHEILJEDANG CORP., priority 2013, dated 2016).
